From paper PMC12730105, “The Interaction Between PGD2 and G6PD6 Is Involved in Aromatic Amino Acid Synthesis” (Biology, 2025) come the findings set out here.

In this assay the target is T1, MBP-G6PD6 (pMAL-c5x) (Arabidopsis thaliana, UniProt Q9FJI5 1-515).
T1 construct: glucose-6-phosphate dehydrogenase 6 (G6PD6), Arabidopsis thaliana, At5g40760, full-length ORF in pMAL-c5x; pMAL-c5x normally places MBP at the N-terminus; source: E. coli BL21 (DE3), purified (amylose resin)
T1 sequence (looked up): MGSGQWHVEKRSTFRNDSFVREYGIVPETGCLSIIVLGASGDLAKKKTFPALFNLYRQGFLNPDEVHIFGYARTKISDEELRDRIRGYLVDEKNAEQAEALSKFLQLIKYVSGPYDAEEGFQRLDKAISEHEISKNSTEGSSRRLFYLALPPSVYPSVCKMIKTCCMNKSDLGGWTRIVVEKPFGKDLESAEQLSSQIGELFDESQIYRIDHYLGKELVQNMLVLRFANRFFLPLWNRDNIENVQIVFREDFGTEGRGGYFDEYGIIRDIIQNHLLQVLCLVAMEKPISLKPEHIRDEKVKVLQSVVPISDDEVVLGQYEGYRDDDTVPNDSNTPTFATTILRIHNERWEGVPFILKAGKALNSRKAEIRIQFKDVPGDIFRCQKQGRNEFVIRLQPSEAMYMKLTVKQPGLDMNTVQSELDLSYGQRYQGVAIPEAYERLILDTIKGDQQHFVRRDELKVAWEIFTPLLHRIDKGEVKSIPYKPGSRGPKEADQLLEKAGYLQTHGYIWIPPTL
As to the kind of experiment: pull-down; purified PGD2-HIS immobilised on Mag-Beads His-Tag resin (4 °C, 1 h), incubated with MBP-G6PD6 at 4 °C for 3 h, three washes, Western blot (the results speak of immobilised MBP-G6PD6). The conditions noted are these: both partners purified. Background: In western blotting, separated proteins are transferred to a membrane and probed.

B1: PGD2-HIS (pET28a-PGD2) (enzyme, Arabidopsis thaliana, UniProt Q9FWA3 1-486, looked up)
chain: MAVQPTRIGLAGLAVMGQNLALNIAEKGFPISVYNRTTSKVDETVERAKKEGNLPLYGFHDPESFVKSIQKPRVIIMLVKAGSPVDQTIKTLSAYLEKGDCIVDGGNEWYENTERREKAVAENGFLYLGMGVSGGEEGARNGPSMMPGGSYEAYKNIEDIVLKVAAQVRDSGPCVTYIGKGGSGNFVKMVHNGIEYGDMQLIAEAYDVLKSVGKLSNEELHSVFSDWNKGELESFLVEITADIFGIKDDKGDGHLVDKVLDKTGMKGTGKWTVQQAAELSVPAPTIESSLDARFLSGLKDERVQAAKVFKAGGFGDILTDQKVDKKQLVDDVRKALYASKICSYAQGMNLIRAKSIEKGWGLKLGELARIWKGGCIIRAIFLDRIKQAYDRNAELANLLVDPEFAKEIIERQSAWRRVVCLAINSGISTPGMSASLAYFDSYRRERLPANLVQAQRDYFGAHTYERTDVEGSFHTEWFKIARQSKI
notes: Printed as PGD2-HIS in the methods and HIS-PGD2 in the results; also called HIS-PGD2; source: E. coli BL21 (DE3), purified (His60 Ni Superflow resin)
As to B1, the binding result is “binds”.
